Source: article PMC2824750

B1: GST-Ehenolase (enzyme)
chain: MSIQKVHAREILDSRGNPTIEVEITTGKGMFRSCVPSGASTGVHEAVELRDGDKKRYGGKGVLKAVENVNTIIGPALLGKNVLNQAELDEMMIKLDGTNNKGKLGANAILGCSMSICRAAAAEKGLPLYKYLAELTGHKEMTMPVPCFNVINGGAHAGNALAMQEFMICPTGATNFHEALRMAAETYQCLKVVIKAKYGQDATNVGDEGGFAPNVSGAREALDLLVEAIAKAGYTGKIEIAMDCAASEFYNEETKKYDLGKKIPADKKDPSLVKDVDGLIAEYVDYGKHYPIASIEDPFAEDDWAAWNKFTVEHGNFQIVGDDLLVTNPARVQMAMDKNACNSVLIKVNQIGTLTETFKTIKMAQEKGWGVMASHRSGETEDTFIADLVVGLNCKQIKTGAPCRSERLCKYNQLMRIEEELGNIPYAGKNWRNSTA
B2: endogenous enolase of E. histolytica trophozoites (enzyme)
chain: B1 chain

Assays:
[1] = biological target: in vitro translated 35S-labelled Ehmeth, full length (TNT-Ehmeth) (E. histolytica)
[2] = biological target: calmodulin, histidine, hemagglutin (CHH)-tagged-Ehmeth (E. histolytica); assay: co-IP; anti-HA immunoprecipitation from nuclear lysate of E. histolytica trophozoites expressing a CHH-tagged protein, HNTG buffer (20 mM Hepes pH 7.5, 150 mM NaCl, 0.1% Triton, 10% glycerol), 4°C; blot with anti-enolase; trophozoites grown in regular medium or starved of glucose for 12 hours

| Binder | inhibition of the tRNA^Asp methyltransferase activity of recombinant Ehmeth (0.4 nmol) by GST-Enolase (2 nmol) [1] [% inhibition] | fold more complex after glucose starvation than in regular medium [2] [fold] |
| --- | --- | --- |
| B1 | 60 |  |
| B2 |  | 3 |
